For 1 substance, EC50 of insulin for the insulin-induced BRET increase between hIR–Rluc8 and Grb2–Venus (m1 + m3), live HEK293 cells, insulin 0.001-10,000 nM and EC50 of insulin for the insulin-induced BRET increase between hIR–Rluc8 and IRS1–YFP (m1 + m2), live HEK293 cells, insulin 0.001-10,000 nM results are on record in PMC4728290.

The target in the experiment is human insulin receptor fused with Renilla luciferase 8 (human) (UniProt P06213).

For the substance bovine insulin (ligand), the EC50 of insulin for the insulin-induced BRET increase between hIR–Rluc8 and Grb2–Venus (m1 + m3), live HEK293 cells, insulin 0.001-10,000 nM turned out to be 4.4 nM; the EC50 of insulin for the insulin-induced BRET increase between hIR–Rluc8 and IRS1–YFP (m1 + m2), live HEK293 cells, insulin 0.001-10,000 nM was 2.2 nM.
